Laboratory results from patent US20090117111A1.

Target: FcγRIIIa on NK cells of V/F donors (both aa158 allotypes, V and F) (human)
Assay: cell-based or functional assay

ED50 for lysis of the Daudi cell line (ADCC, purified NK cells, V/F donors) [pM] | Substance
2 | monoclonal antibody CHIR-12.12
21 | rituximab (Rituxan) (antibody)
